# In patent US20260217846A1 (published 2026):
# B1: Clone 49A 4-1BB antibody (IgG1) (antibody, V domains shown)
# VH: VKLQQSGPELVKPGASVKISCKASGYTFTDYYMNWVKESHGKSLEWIGDINPNNGGSTYYNQKFKGKATLTVEKSSSTAFMELRSLTSEDSAVYYCARSLYGSTYYFDYWGQGTPLTVSS
# VL: DIVLTQSPASLAVSLGQRATISCKASQSVDYDGDSYMNWYQQKPGQPPKLLIYAASNLESGIPARFSGSGSGTDFTLNIHPVEEEDAGTYYCQQSNDDPWTFGGGTKLEIK
# B2: Clone 54 4-1BB antibody (IgG2a) (antibody, V domains shown)
# VH: EFQLQQSGPELVKPGASVKISCKASGYSFTDYNMNWVKQSNGKSLEWIGVINPNYGTTSYNQKFKGKATFTVDQSSSTAYMQLNSLTSEDSAVYYCARSPVEDYFDYWGQGTTLTVSS
# VL: ENVLTQSPAIMSASPGEKVTMTCRARSSVSSSYLHWYQQKSGASPKLWIYSTSNLASGVPARFSGSGSGTSYSLTISSVEAEDAATYYCQQYSGYPLITFGAGTKLELKR
# B3: Clone 138 4-1BB antibody (IgG2b) (antibody, V domains shown)
# VH: VQLQESGGGLVKPGGSLKLSCAASGFTFSDYGMHWVRQAPEKGLEWVAYISSGSNSIYYADTVTGRFTISRDNAKNTLFLQMTSLRSEDTAMYYCASNNGYFYFDYWGQGTTLTVSS
# VL: IVITQSPAILSASPGEKVTMTCRASSSVSYMHWYQQKPGSSPKPWIYATSNLASGVPARFSGSGSGTSYSLTVSRVEAEDAATYYCQQWSSDPFTFGSGTKLEIK
# Molecular target: recombinant human 4-1BB (human, UniProt Q07011 24-186)
# Test: ELISA
# recombinant human 4-1BB, sequence (Q07011 24-186): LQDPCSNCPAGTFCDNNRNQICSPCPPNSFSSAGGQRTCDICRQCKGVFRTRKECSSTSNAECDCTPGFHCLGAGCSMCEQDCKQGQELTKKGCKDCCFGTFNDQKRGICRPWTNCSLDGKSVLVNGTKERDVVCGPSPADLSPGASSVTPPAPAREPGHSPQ
row,EC50 [ng/mL],Binder
1,1.32,B1
2,16,B2
3,4.71,B3
